{"source": "the DeepSol protein solubility set"}
{"test": "soluble on expression in E. coli; label from the status in PepcDB or PDB records"}
{"sequence": "AKDNYGKLPLIQSRDSDRTGQKRVKFVDLDEAKDSDKEVLFRARVHNTRQQGATLAFLTLRQQASLIQGLVKANKEGTISKNMVKWAGSLNLESIVLVRGIVKKVDEPIKSATVQNLEIHITKIYTISETPEALPILLEDASRSEAEAEAAGLPVVNLDTRLDYRVIDLRTVTNQAIFRIQAGVCELFREYLATKKFTEVHTPKLLGAPSEGGSSVFEVTYFKGKAYLAQSPQFNKQQLIVADFERVYEIGPVFRAENSNTHRHMTEFTGLDMEMAFEEHYHEVLDTLSELFVFIFSELPKRFAHEIELVRKQYPVEEFKLPKDGKMVRLTYKEGIEMLRAAGKEIGDFEDLSTENEKFLGKLVRDKYDTDFYILDKFPLEIRPFYTMPDPANPKYSNSYDFFMRGEEILSGAQRIHDHALLQERMKAHGLSPEDPGLKDYCDGFSYGCPPHAGGGIGLERVVMFYLDLKNIRRASLFPRDPKRLRP", "soluble on expression in E. coli": "soluble"}
{"sequence": "MQSFTADINEINITNGKLDFSDSSLTPKFSAGIYSLNGDITGLSSNEDSRAKIDLKGKVDKYAPVIIKGSVNPLSHDAFTDIDMLFNGIELTTFTPYSGKFAGYAIDKGKLSLGLNYKLSNNKLVAENNVTLDQLTLGEVVNSEEATSLPIKFALSLLEHHHHHH", "soluble on expression in E. coli": "not soluble"}
{"sequence": "MSLSKIIFPGFIDLHNHFPQTQVIASYGTKLLEWLNKYTFPNESLFVDDKHCERESKIFLDLLNHNGITTSVSFGSVHPNSVEYLFQEAHRRNMCVIAGNVLMDRNAPDTVLEKADKSYLSSKEIISKWHNVSRCKYAITPRFAITSTPELMEVSQTLCAENQSCYVQTHLSENIDEIETTLELFPDQKDYLSIYDKYKLLSNKTLLAHSIHLEMSEIERMKETKSIAVHCPTSNLFLGSGLFKFKELEEKGVRTAIATDVGGGTSFSMLRTLDEAYKVQQLGNYSLNPLASYFWSTMEGHHHHHH", "soluble on expression in E. coli": "soluble"}
{"sequence": "MIKKWLSVALISTAAMMPHTTFASDTLLQKAQQENRQQQTHNASRESGFKKTEQELQAIKNKLVAERAALQAEADTLSVTFSENEAELAQLEEKLRLETGSLGELFGVVRQNAKELESELKHAVTGVDANSYQKDIEAIVAAKSLPTLKQLQAMWRSMEEQVTASGELAKVSFTLLDGEGKEQTVNGVRLGAMALLDDNGYVKWNGQRGDAVNYLRQPENGPTASAFTNGELDSLVIDPSRGILLEQLANSPTLKDRLNAGGVVGQ", "soluble on expression in E. coli": "not soluble"}
{"sequence": "SAVDRDIFGISGPTYLNPVNWNCEHNRRSVAACLVQAVYVLERDRQLGRQSVEALGPPWWEFFHFELIRKLVDDADLSIFGAIFEFNPPSSKESSADNAPRFVIAFRGTITEKETISRDIALDLHLVQNGLHRTSRFTIAMQAVQNVASVFPGSNIWLAGHSLGAGMAILTGRNMVKKGVLLESYLFNPPFVAAPIERISDERVKHGFRIARSVITAGLAIAMKGKGEGSSQRSVAEDSFHILSSWTPYLFVNPGDHICSEYIGYFQHRKNMEDLGAGFIEKLATQNSIGDLFYKALGWESEPLHLLPSADLIVNVSPSPDFKYAHGISQWWQPELNLQCSKYRYSVGA", "soluble on expression in E. coli": "soluble"}
{"sequence": "MSLKKISFIINGQVEIFPESDDLVQSINFGDNSVYLPILNNSHVKNIIDYNENNKLRLHNIVNFLYTVGQRWKNEEYSRRRTYIRDLKKYMGYSEAMAKLEANWISMILCSKGGLYDVVENELGSRHIMDEWLPQDESYIKAFPKGKSIHLLAGNVPLSGIMSILRAILTKNQCIIKTSSTDPFTANALALSFIDVDPNHPITRSLSVVYWPHQGDTSLAKEIMQHMDVIVAWGGEDAINWAVEHAPPYADVIKFGSKKSFCIIDNPVDLTSAATGAAHDICFYDQRACFSAQNIYYMGNQYEEFKLALIEKLNLYAHILPNAKKDFDEKAAYSLVQKESLFAGLKVEVDVHQRWMIIESNAGVEFNQPLGRCVYLHHVDNIEQVLPYVQKNKTQTISIFPWESAFKYRDALALRGAERIVEAGMNNIFRVGGSHDGMRPLQRLVTYISHERPSHYTAKDVAVEIEQTREGHHHHHH", "soluble on expression in E. coli": "soluble"}
{"sequence": "QMCSSLMIIAFDFDGTLVDSYSCIEEAFYRALKRTYPWLPGKRYIAKLLTKLELQFERPKFGKHGRKIKPPMKIFQGKFARAWFEERAKLTKPLDGAREVLERLKEDGHIVISFSAEDFIPGIKEYRLKISGLYDLFDDVIIFGRDITICEAFSIVREKYGYDTFVWVDDKPWRFIGRGDENTEYVWMYFPYTARFVSDDILAQIPHLHVIYDLWSLLDVVKNLK", "soluble on expression in E. coli": "not soluble"}
{"sequence": "MGSDKIHHHHHHMETLILTQEEVESLISMDEAMNAVEEAFRLYALGKAQMPPKVYLEFEKGDLRAMPAHLMGYAGLKWVNSHPGNPDKGLPTVMALMILNSPETGFPLAVMDATYTTSLRTGAAGGIAAKYLARKNSSVFGFIGCGTQAYFQLEALRRVFDIGEVKAYDVREKAAKKFVSYCEDRGISASVQPAEEASRCDVLVTTTPSRKPVVKAEWVEEGTHINAIGADGPGKQELDVEILKKAKIVVDDLEQAKHGGEINVAVSKGVIGVEDVHATIGEVIAGLKDGRESDEEITIFDSTGLAIQDVAVAKVVYENALSKNVGSKIKFFRI", "soluble on expression in E. coli": "soluble"}
{"sequence": "MAHHHHHHMDPYPPSRVEVTVDDSFGRLEGLAEEHSIIEETWRKLMKGLERKILHNGLKFRLHNVVQYDNGKCHLQLGITDYKSSMGVATNVDYFLRSTSDGGTDRRKYLARALGIECFTTTSDEKAVMFCRSSLVSEYPGYYCFPGGHPEPQDILCQLPLSGPATGNHNNIDHNHNSVQNSDLLNDRLRREEAVSQLSGVNPEVIVQHLFDSAVMEVADELGVERTACRNRGLLSIVENMKNMKPDACFWVEVNQTAAEVQARFDSRVGFDAFESVPHSLVVVHLDDIVDCEGAELFIKDCLGGKVTPPSVACWLHGMACYRSLRGTLGKAQTHSFA", "soluble on expression in E. coli": "not soluble"}
{"sequence": "MENKYTHGVLFYHEHSGLKNINQGIGEVTTALSSICKHLSIQLSENEGDIIKYCQEIKTKNYAKDVDILFILGGDGTVNELINGVMTHDLQLPIGILPGGTFNDFTKTLNIAPNHKQASEQMISAQVGKYDVIKINNQYALNFVGLGLIVQNAENVQDGSKDIFGKLSYIGSTVKTLLNPTQFNYQLSIDDKTYSGETTMILTANGPFIGGSRIPLTDLSPQDGELNTFIFNEQSFSILNDIFKKRDSMNWNEITQGIEHIPGKKISLTTDPAMKVDIDGEISLETPIDIEVIPNAIQLLTVNDLLEHHHHHH", "soluble on expression in E. coli": "not soluble"}
{"sequence": "GMSVNGIEVAKPFIAATVNVLSTMAGIQPQPGKPYVKKNNVAKGDVSAVIGITGHKNGSISVTFTKSCAIALVKGMLGDDIQDILQDTKDAVGEVTNMISGQARAGLAEMGMVFQGSTPSVIMGDGHTISHVTKSPIMAIPFLTNHGEFTVEFCFE", "soluble on expression in E. coli": "soluble"}
{"sequence": "MAHHHHHHMSELKIGFLGCGSMGECIMAGLLKAKALGPENTFICNRSASTNERLVSLYQVKSVSAVELAEKSDIIMLGVKPYGIVPVLETIKEKITPSKLVVSMAAGVPIATIENHCPPKTKVVRVMPNIPSYVGEGVTSISGNSAVTPDDEAVVMKLFSAIGKSYLVAESAIHGVVGVAGSSPAYVFMFMEALSDGAVRGGIPRAQSYEMAAQAVLGAAKMLQDSGKTPSALKDMVCSPGGTTIEAVRFLEKGGMRSSIIEAMIQCMEKSKEFERMYSE", "soluble on expression in E. coli": "soluble"}
{"sequence": "MSLDIAELHRAGDDIKEMMKSEGYYSEPSKYEAELSDGNITFAYSYPIKAFEKFLGYYDRENRIAFNPSISMRTDFSFCLAACRYRKNGKTDTVVLDGYADNKYYKKAKFALDKFRSEYSINGSFDFYIKRYRRYQKAKGLSESSAVAAAVSRALISNVFGDDAAKDDIFVSRYARLVSGSGTRAAHDGISMWLSYPGMDSRDCVAFKVGKSNENLNYGVFPKYSDVATDNAHSIAVNSVFYGTWVSEKFSNVKRLISDHFDINDLLKIGENDMLRLNSILMSGGLIIQTPDSLRILKEILKFKSKNEGFYFTADTGPSIAIFSFDRSLIDEFRENVNDEYIEGSYDFKGYNNRMRDFIREAQEYFTQTPGEDEEDREGHHHHHH", "soluble on expression in E. coli": "soluble"}
{"sequence": "MPVAKDNQFWDALMENKVAKKLIKKHKCKAKCENIDDLANRYEVSKQEVEKVFKIFQLMDDDGSGTISSSEVAKMLNELGIDVSPKVVQAVMRSSDVSGDGQIDFEEFLAAVTSKIKLSTVKADVQLMLSKIDNNPEKVVSWGIEHLMIIFCEEPLKSCYYRLALTAGCTIICGYLWF", "soluble on expression in E. coli": "not soluble"}
{"sequence": "MGSDKIHHHHHHACDDNKDEFLDEFSTILSFRNCDEIEVEVYNTGENGEYQLIVNKSGAQLGTVTRASIDVMDKALLEIYNEQNGKDYQLYPEDCYVFNGDKQIEFGPNDTYQTRSVTLITDKILESNQQEGNFVIPFILQNSADSINAERKYVFLKPAVIVPNVAFEKTGYNLNIISDAMDANEIELNLPAVFSVDNKWNFSCTLEPDESLLTEYNEKNGVDYTMLSEEAYTLSNEGKILFTAGSKSASLTVTVKRNKLSYGNYVLPLKMTQCSSPYFEINPNKQSCLFGISYVPDESKLHPVTLSRGMTAIHPNREVEGKIDYMFDGNPDTYYHSDYLEEPGLPHWIQLNLDEPHTALMFEYQVRHNNNNGAPQRISVLGSMDGITFSKIMTIMEGFPTATKGTYKSPVLVGKEFKHIRLVVESTPAGNSFALAELKLHVN", "soluble on expression in E. coli": "not soluble"}
{"sequence": "MSLKDICLKVFGDYACFTRPEMKVERVSYDIITPSAARAIFEAILWKPAIRWRVTKIEVLKPIRWISVRRNEVGAVASVRTAQTAMQAGRGDLGLYIEEERQQRAGLFLREVAYRLHARCEPTDRKGEQESPDKFLAMFHRRATNGQCFNQPYLGCREFAAHFEPVTNLDAAMADEPPITETRDLGWMLHDIDFANGIQPKFFRAHMQQGVIRVPEWNSEGVKGEGHHHHHH", "soluble on expression in E. coli": "soluble"}
{"sequence": "MHHHHHHSSGVDLGTENLYFQSNAMKKEIASHLLEIGAVFLQPNDPFTWSSGMKSPIYCDNRLTLSYPKVRQTIAAGLEELIKEHFPTVEVIAGTATAGIAHAAWVSDRMDLPMCYVRSKAKGHGKGNQIEGKAEKGQKVVVVEDLISTGGSAITCVEALREAGCEVLGIVSIFTYELEAGKEKLEAANVASYSLSDYSALTEVAAEKGIIGQAETKKLQEWRKNPADEAWITA", "soluble on expression in E. coli": "soluble"}
{"sequence": "MASYYEILDVPRSASADDIKKAYRRKALQWHPDKNPDNKEFAEKKFKEVAEAYEVLSDKHKREIYDRYGREGLTGTGTGPSRAEAGSGGPGFTFTFRSPEEVFREFFGSGDPFAELFDDLGPFSELQNRGSRHSGPFFTFSSSFPGHSDFSSSSFSFSPGAGAFRSVSTSTTFVQGRRITTRRIMENGQERVEVEEDGQLKSVTINGVPDDLALGLELSRREQQPSVTSRSGGTQVQQTPASCPLDSDLSEDEDLQLAMAYSLSEMEAAGKKPAGGREAQHRRQGRPKAQHQDPGLGGTQEGARGEATKRSPSPEEKASRCLIL", "soluble on expression in E. coli": "soluble"}
{"sequence": "MAQVLSLENVTLAVEKENSKQAIVKHVSFFINEGEIVALVGESGSGKSVTAQSIIGLNQESIQFDDGNISFESKDLTNLQESEWNQIRGKDISFIFQDPLSSLNPTMKVGRQITEVILQHEKKSKKEAKEIAINLLNDLGIHEAEKRFEQYPHQLSGGMRQRICLAIAFACHPKLVIADEPTTALDVTIQKQIMGLLKERKEKQNTSILLITHDLALVREVADRVVVMYGGRIVEKGTIQEVIGSPKHPYTKSLLQAIPNMDDAEKVLRAIEGTTPSIETLNSFGCPFVNRCPVAIQECIHRFPERTTYSAEHSSHCWQHVLEHDRAKSKEKVNVS", "soluble on expression in E. coli": "not soluble"}
{"sequence": "SASDFEERVVTIPLRDARAEPNHKRADKAMILIREHLAKHFSVDEDAVRLDPSINEAAWARGRANTPSKIRVRAARFEEEGEAIVEAETAE", "soluble on expression in E. coli": "soluble"}
{"sequence": "MAENKQASEGLAEDLIRSMVQTASIELHLKTLVEKRQSEMDNGLIDTNDFNRVNEQIDVLKNLKEELFEVTEQRRQDMRTLFDLFEGKGDKEQWCIVKHAAMAMYTAFEAWQASDNDRLLYQICIEKNAYFIKKITQFTGVPITECASCFSDMMKGAIDDEG", "soluble on expression in E. coli": "not soluble"}
